Test results as given in patent US20260209362A1 (VIB VZW, published 2026).

T1: biotinylated recombinant mouse IL-12Rβ2 (mouse, UniProt P97378 24-637, random biotinylated)
T1 construct: Recombinant protein produced in-house; also called mIL-12RB2; mouse IL-12RB2
T1 sequence: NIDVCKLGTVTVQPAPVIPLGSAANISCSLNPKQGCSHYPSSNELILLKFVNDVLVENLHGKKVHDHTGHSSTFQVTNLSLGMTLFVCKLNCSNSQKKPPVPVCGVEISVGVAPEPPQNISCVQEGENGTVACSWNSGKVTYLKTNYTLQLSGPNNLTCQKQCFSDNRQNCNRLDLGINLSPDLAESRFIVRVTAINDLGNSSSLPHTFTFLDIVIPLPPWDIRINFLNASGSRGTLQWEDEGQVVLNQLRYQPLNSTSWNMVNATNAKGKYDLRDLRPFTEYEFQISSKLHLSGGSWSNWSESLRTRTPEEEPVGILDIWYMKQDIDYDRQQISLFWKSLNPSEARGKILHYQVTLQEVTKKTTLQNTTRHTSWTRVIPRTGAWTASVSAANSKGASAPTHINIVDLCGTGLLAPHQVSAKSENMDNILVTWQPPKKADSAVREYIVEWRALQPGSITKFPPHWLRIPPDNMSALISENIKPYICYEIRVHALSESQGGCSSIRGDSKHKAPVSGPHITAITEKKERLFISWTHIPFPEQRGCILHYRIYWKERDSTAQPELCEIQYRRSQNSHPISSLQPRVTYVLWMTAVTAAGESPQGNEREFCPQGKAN

T2: biotinylated recombinant human IL-12Rβ2 (human, UniProt Q99665 24-622, random biotinylated)
T2 construct: Recombinant protein produced in-house; also called hIL-12RB2; human IL-12RB2
T2 sequence: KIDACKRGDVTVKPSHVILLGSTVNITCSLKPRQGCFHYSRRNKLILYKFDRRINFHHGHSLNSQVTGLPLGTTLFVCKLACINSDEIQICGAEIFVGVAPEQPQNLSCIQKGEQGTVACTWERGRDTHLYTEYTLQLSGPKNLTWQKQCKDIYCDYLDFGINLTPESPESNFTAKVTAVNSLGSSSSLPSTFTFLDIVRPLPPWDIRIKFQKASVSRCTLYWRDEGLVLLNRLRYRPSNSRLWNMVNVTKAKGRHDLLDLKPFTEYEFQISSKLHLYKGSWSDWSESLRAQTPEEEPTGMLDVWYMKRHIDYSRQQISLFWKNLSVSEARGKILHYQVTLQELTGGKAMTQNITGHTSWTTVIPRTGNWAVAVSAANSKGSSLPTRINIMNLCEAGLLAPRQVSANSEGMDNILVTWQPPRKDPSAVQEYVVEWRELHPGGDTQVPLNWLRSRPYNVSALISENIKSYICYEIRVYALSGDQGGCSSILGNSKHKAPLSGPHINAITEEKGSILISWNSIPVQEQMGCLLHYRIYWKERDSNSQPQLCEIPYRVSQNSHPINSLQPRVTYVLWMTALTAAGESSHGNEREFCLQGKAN

B1: anti-IL-12Rβ2 VHH clone 3CRHS1 (clone ID 20412) (VHH, not shown: small tags and cut ends)
VHH: QVQLQESGGGSVQPGGSLRLSCAASGFTFSTSGMHWFRQAPGKGLEWVSSIGIIVDSSYYASSVKGRFTISRDNAKNTLYLQMNSLKSEDTAVYYCSKDPTGSSRGQGTQVTVSS
notes: periplasmic extract
B2: anti-IL-12Rβ2 VHH clone 3CRH14 (clone ID 20374) (VHH, not shown: small tags and cut ends)
VHH: QVQLQESGGGLVQPGGSLRLSCAASGFTFSTSGMHWFRQAPGKGLEWVSSIGIIVDSSYYADSVKGRFTISRDNAKNTLFLQMNSLKSEDTAVYYCSKDPTGSSRGQGTQVTVSS
notes: periplasmic extract
B3: anti-IL-12Rβ2 VHH clone 2CRH80 (clone ID 20371) (VHH, not shown: small tags and cut ends)
VHH: QVQLQESGGGLVQPGGSLRLSCAASGFTFSTSGMHWFRQAPGKGLEWVSSIGIIVGSSYYASSVKGRFTISRDNAKNTLYLHMNSLKSEDTAVYYCSKDVTGSSRGQGTQVTVSS
notes: periplasmic extract
B4: anti-IL-12Rβ2 VHH clone 3CRH43 (clone ID 20382) (VHH, not shown: small tags and cut ends)
VHH: QVQLQESGGGSVQPGGSLRLSCAASGFTFSTSGMHWFRQAPGKGLEWVSSIGIIVDSSYYASSVKGRFTISRDNAKNIVYLQMNSLKSEDTAVYYCSKDPTGSSRGQGTQVTVSS
notes: periplasmic extract
B5: anti-IL-12Rβ2 VHH clone 3CRH5 (clone ID 20373) (VHH, not shown: small tags and cut ends)
VHH: QVQLQESGGGLVQAGGSLVLSCAASGSAALIFLMSWYRQAPGKQRELVAEVSRGGSTTYADSVEGRFTISRDNAKNIVDLQMNSLKPEDTAVYYCKADQNYGDSLRSSWGQGTQVTVSS
notes: periplasmic extract
B6: anti-IL-12Rβ2 VHH clone 3CRHS184 (clone ID 20441) (VHH, not shown: small tags and cut ends)
VHH: QVQLQESGGGLVQAGGSLVLSCAASGSAALIFLMSWYRQAPGKQRELVAEVSRYGSTTYADSVEGRFTISRDNAKNIVDLQMNSLKPEDTAVYYCKADQYYGDSLRSSWGRGTQLTVSS
notes: periplasmic extract
B7: anti-IL-12Rβ2 VHH clone 3CRHS9 (clone ID 20415) (VHH, not shown: small tags and cut ends)
VHH: QVQLQESGGGLVQPGGSLRLSCTASGSIVSIYNMDWYRQAPGNEREWVASITSSGDPYYDGSAKGRFTISRDNAKMTVYLQMNSLKPEDTAVYYCKVPTEKGNYWGQGTQVTVSS
notes: periplasmic extract
B8: anti-IL-12Rβ2 VHH clone 3CRHS55 (clone ID 20423) (VHH, not shown: small tags and cut ends)
VHH: QVQLQESGGGLVQAGGSLNLSCTASGSIISIYNMDWYRQAPGNQREWVASITSNGDSYYDGSAKGRFTISRDNAKMTVYLQMNSLKPEDTAVYYCKVPTENGNYWGQGTQVTVSS
notes: periplasmic extract
B9: anti-IL-12Rβ2 VHH clone 3CRHS3 (clone ID 20414) (VHH, not shown: small tags and cut ends)
VHH: QVQLQESGGGLVQPGGSLRLSCTASGSIFSIYNMDWYRQAPGNQREWVASITSSGDPYYDASVKGRFTISRDSAKMTVYLQMNSLKPEDTAVYYCKLPTEKGNYWGQGTQVTVSS
notes: periplasmic extract
B10: anti-IL-12Rβ2 VHH clone 3CRHS54 (clone ID 20422) (VHH, not shown: small tags and cut ends)
VHH: QVQLQESGGGLVQPGGSLRLSCTASGSIVSIYNMDWYRQAPGNEREWVASITSSGDPYYDGSAKGRFTISRDNAKMTVYLQMNSLEPEDTAVYFCKVPTEKGNYWGQGTQVTVSS
notes: periplasmic extract
B11: anti-IL-12Rβ2 VHH clone 3CRH27 (clone ID 20379) (VHH, not shown: small tags and cut ends)
VHH: QVQLQESGGGLVQAGGSLRLSCTASGSIVSIYNMDWYRQAPGNEREWVASITSSGDPYYDGSAKGRFTISRDNAKMTVYLQMNSLKPEDTAVYYCKVPTEKGNYWGQGTQVTVSS
notes: periplasmic extract
B12: anti-IL-12Rβ2 VHH clone 3CRHS100 (clone ID 20428) (VHH, not shown: small tags and cut ends)
VHH: QVQLQESGGGLVQPGGSLRLSCTASGSIFSIYNMDWYRQAPGNQREWVASITPSGDPYYDDSAKGRFTISRDNAKMTVYLQMNSLKPEDTAVYYCKVPTEKGNYWGQGTQVTVSS
notes: periplasmic extract
B13: anti-IL-12Rβ2 VHH clone 3CRHS148 (clone ID 20436) (VHH, not shown: small tags and cut ends)
VHH: QVQLQESGGGLVQPGGSLRLSCIASGSIFSIYNMDWYRQAPGNQREWVASITPSGDPYYDDSAKGRFTISRDNAKMTVYLQMNSLKPEDTAVYYCKVPTEKGNYWGQGTQVTVSS
notes: periplasmic extract
B14: anti-IL-12Rβ2 VHH clone 3CRH18 (clone ID 20377) (VHH, not shown: small tags and cut ends)
VHH: QVQLQESGGGLVQPGGSLRLSCTASGNIVSIYNMDWYRQAPGNQREWVASITSSGDPYYDGSAKGRFTISRDNAKMTVYLQMNSLRPEDTAVYYCKVPTEKGNYWGQGTQVTVSS
notes: periplasmic extract
B15: anti-IL-12Rβ2 VHH clone 3CRH68 (clone ID 20388) (VHH, not shown: small tags and cut ends)
VHH: QVQLQESGGGLVQPGGSLRLSCTASGSILSIYNMDWYRQVPGNQREWVASITPSGDPYYDGSVKGRFTISRDNAKMMVYLQMNSLKPEDTAVYYCKVPTEKGNYWGQGTQVTVSS
notes: periplasmic extract
B16: anti-IL-12Rβ2 VHH clone 2CRH33 (clone ID 20363) (VHH, not shown: small tags and cut ends)
VHH: QVQLQESGGGSVQPGWSLRLTCAASGFTFSTSGMHWFRQAPGKGLEWVSSISSGGGDTYYTDSVKGRITISRDNAKNTLYLQLNDLKSEDTAVYYCSKDPSGATRGQGTQVTVSS
notes: periplasmic extract
B17: anti-IL-12Rβ2 VHH clone 2CRH60 (clone ID 20367) (VHH, not shown: small tags and cut ends)
VHH: QVQLQESGGGSVQPGGSLRLTCAASGFTFSTSGMHWFRQAPGKGLEWVSSISSGGGDTYYTDSVKGRITISRDNAKNTLYLQLNDLKSEDTAVYYCSKDPSGATRGQGTQVTVSS
notes: periplasmic extract

Legend:
[1] = biological target: T1, biotinylated recombinant mouse IL-12Rβ2; experiment: ELISA, P.E., biotinylated antigen
[2] = biological target: T2, biotinylated recombinant human IL-12Rβ2; experiment: ELISA, P.E., biotinylated antigen
[3] = biological target: T2, biotinylated recombinant human IL-12Rβ2; experiment: BLI, P.E., off-rate ranking

Binder	ELISA mIL-12RB2/control [1]	ELISA hIL-12RB2/control [2]	Response [3]	koff [3]
B1	1.01	6.74	0.3	0.00283 s⁻¹
B2	1.19	5.51	0.438	0.00328 s⁻¹
B3	1.23	5.01	0.53	0.00353 s⁻¹
B4	0.828	4.75	0.296	0.00243 s⁻¹
B5	0.808	8.64	0.491	0.00337 s⁻¹
B6	1.06	4.17	0.515	0.00385 s⁻¹
B7	1.09	5.08	0.222	0.0034 s⁻¹
B8	1.11	3.76	0.204	0.00296 s⁻¹
B9	1.05	6.39	0.327	0.00225 s⁻¹
B10	1.26	7.85	0.203	0.00272 s⁻¹
B11	1.44	10.2	0.138	0.00264 s⁻¹
B12	1.05	5.88	0.209	0.00322 s⁻¹
B13	0.74	3.36	0.0184	
B14	1.8	5.84	-0.19	
B15	1.03	4.66	0.426	0.00444 s⁻¹
B16	0.971	6.44	0.621	0.00491 s⁻¹
B17	0.866	5.31	0.661	0.00533 s⁻¹
